Results taken from article PMC3064778.

Tests used:
AddAB = AddAB (Bacillus subtilis, UniProt P23478;P23477 1-1232;1-1166); assay: EMSA
AddANBN = AddANBN (Bacillus subtilis, UniProt P23478;P23477 1-1232;1-1166, D1172A;D961A); assay: EMSA

B1: Bind15 (dsDNA)
DNA 1: CCGCCTCTTGGCCGATTCA
DNA 2: TCGGCCAAGAGGCGGTTTG
- binding result (AddAB): binds

B2: Cy5Bind15 (dsDNA)
DNA 1: CCGCCTCTTGGCCGATTCA
DNA 2: TCGGCCAAGAGGCGGTTTG
- binding result (AddANBN): binds
